The results in this text go back to US20180016312A1 (Pieris, published 2018).

In test [1] the target is T1, human angiopoietin-2 (human, UniProt O15123 19-496, limits assumed).
T1 construct: Bought recombinant protein with a His tag (detected by anti-HIS-tag antibody); also called human Ang-2; hAng-2
T1 sequence (looked up): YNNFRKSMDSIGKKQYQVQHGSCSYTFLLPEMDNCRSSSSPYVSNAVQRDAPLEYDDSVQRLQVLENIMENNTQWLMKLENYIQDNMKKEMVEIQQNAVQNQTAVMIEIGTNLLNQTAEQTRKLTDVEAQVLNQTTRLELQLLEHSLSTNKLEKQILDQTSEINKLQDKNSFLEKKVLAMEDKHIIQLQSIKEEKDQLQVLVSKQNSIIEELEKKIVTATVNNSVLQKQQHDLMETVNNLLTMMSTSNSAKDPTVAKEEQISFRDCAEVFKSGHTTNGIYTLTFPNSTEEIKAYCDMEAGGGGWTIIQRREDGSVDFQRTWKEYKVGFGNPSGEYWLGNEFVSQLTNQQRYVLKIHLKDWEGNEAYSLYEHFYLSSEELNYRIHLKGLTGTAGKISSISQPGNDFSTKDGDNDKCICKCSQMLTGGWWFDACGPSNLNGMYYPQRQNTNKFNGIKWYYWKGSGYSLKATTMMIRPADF
The test is described as follows: SPR Biacore T200; biotinylated SEQ ID NO: 16 captured, hAng-2 analyte. How it is done: (§1) In the SPR affinity assay, biotinylated muteins and negative control were captured on a sensor chip CAP using the Biotin CAPture Kit (GE Healthcare): Sensor Chip CAP is pre-immobilized with an ssDNA oligo. Undiluted Biotin CAPture Reagent (streptavidin conjugated with the complementary ss-DNA oligo) was applied at a flow rate of 2 μl/min for 300 s. Subsequently, 0.02 μg/mL of biotinylated muteins or negative control were applied for 300 s at a flow rate of 5 μl/min. […] The reference channel was loaded with Biotin CAPture Reagent only.
(§2) Applying a flow rate of 30 μL/min, a multi cycle kinetics approach was used with a sample contact time of 180 s and a dissociation time of 4600 s. All measurements were performed at 25° C. […] Data were evaluated with Biacore T200 Evaluation software (V 1.0). Double referencing was used. A 1:1 Binding model was used to fit the raw data even though the analyte was known to be a multimer.
For orientation: SPR reads the build-up and loss of mass on a sensor chip optically.

For test [2], the target named is T1, human angiopoietin-2. Briefly: cell-based or functional assay.
In another test the target is T2, human angiopoietin-1 (human, UniProt Q15389 20-498, limits assumed).
T2 construct: Bought recombinant protein; also called human Ang-1; hAng-1
T2 sequence (looked up): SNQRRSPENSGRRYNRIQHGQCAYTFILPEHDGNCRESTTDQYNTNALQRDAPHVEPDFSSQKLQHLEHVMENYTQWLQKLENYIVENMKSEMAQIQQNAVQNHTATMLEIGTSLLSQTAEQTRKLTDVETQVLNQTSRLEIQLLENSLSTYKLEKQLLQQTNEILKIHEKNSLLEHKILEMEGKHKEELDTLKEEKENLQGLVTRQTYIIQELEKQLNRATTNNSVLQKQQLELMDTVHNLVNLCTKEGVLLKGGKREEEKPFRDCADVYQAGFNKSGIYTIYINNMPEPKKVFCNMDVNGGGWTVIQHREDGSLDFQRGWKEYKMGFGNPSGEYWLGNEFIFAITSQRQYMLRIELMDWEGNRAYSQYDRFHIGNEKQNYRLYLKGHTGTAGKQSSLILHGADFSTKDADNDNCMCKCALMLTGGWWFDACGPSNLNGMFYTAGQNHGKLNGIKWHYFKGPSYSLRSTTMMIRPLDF
Briefly: competition ELISA format (FIG. 2). The method, then:
In the following detailed experimental protocol, incubation and washing steps were performed as described above in the competition ELISA protocol (see Example 5).
A general note: In an ELISA, binding on a coated surface is turned into a signal by an enzyme label.

For test [3], the target named is T1, human angiopoietin-2. Briefly: ELISA; Ang-2 coated, mutein detected by anti-Streptag-HRP. How it is done: Binding of muteins was tested by a sandwich ELISA assay.
20 μl of serially diluted muteins were incubated in PBS-T/BSA for 1h at room temperature (RT).
The residual supernatants were discarded and 20 μl HRP-labeled anti-Streptag antibody was added at a predetermined optimal concentration in PBS-T/BSA and incubated for 1 h at RT. After washing, 20 μl fluorogenic HRP substrate (QuantaBlu, Thermo) was added to each well, and the reaction was allowed to proceed for 15 to 60 minutes. The fluorescence intensity of every well on the plate was read using a fluorescence microplate reader (Tecan or Molecular Devices). Curve fitting was performed using GraphPad Prism 4 software.

The target of test [4] is T1, human angiopoietin-2. The test is described as follows: SPR Biacore T200; upper end of the range, tied to SEQ ID NO: 7 by Table 3. The method, then:
as §1, §2

In test [5] the target is T1, human angiopoietin-2. Briefly: SPR Biacore T200; biotinylated mutein captured, hAng-2 analyte, 1:1 model, 25 C. How it is done: as §1, §2
The target in test [6] is T1, human angiopoietin-2. Briefly: competition ELISA; 0.5 nM hAng-2 pre-incubated with binder, free hAng-2 captured on hTie-2 Fc (competitor). The method, then:
All incubation steps were performed with shaking at 300 rpm, and the plate was washed after each incubation step with 80 μl PBS-T buffer (PBS, 0.05% Tween 20) for five times using a Biotek EL405 select CW washer (Biotek). In the first step, a 384 well plate was directly coated with 20 μl of soluble human hTie-2 Fc (Reliatech) at a concentration of […] in PBS over night at 4 ° C. After washing, h Tie-2 Fc coated wells were blocked with 60 μl PBS-T/BSA (2% BSA in PBS containing 0.1% Tween 20) for 1 h at room temperature.
Curve fitting was performed using GraphPad Prism 4 software.

In test [7] the target is T1, human angiopoietin-2. The test is described as follows: competition cell ECL; hAng-2 pre-incubated with binder, free Ang-2 captured on HEK:hTie-2 cells (competitor). The method, then:
(§3) All incubation steps were performed at room temperature, and the plate was washed after each incubation step with 80 μl PBS buffer for two times using a Biotek EL405 select CW washer (Biotek). In the first step, a 384 well plate was precoated for 5 minutes with poly D lysine and washed twice with PBS. 10⁴ HEK:hTie-2 cells per well were seeded and allowed to adhere to the surface of the wells overnight at 37° C. . After washing, cell coated wells were blocked with 60 μl PBS/Casein (2% Casein in PBS) for 1 h at room temperature.
(§4) After washing, 35 μl surfactant-free reading buffer was added to each well and the ECL signal of every well was read using a Mesoscale Discovery reader.

The next test concerns the target T3, mouse angiopoietin-2 (mouse, UniProt O35608 19-496, limits assumed).
T3 construct: Bought recombinant protein; also called mouse Ang-2; mAng-2
T3 sequence (looked up): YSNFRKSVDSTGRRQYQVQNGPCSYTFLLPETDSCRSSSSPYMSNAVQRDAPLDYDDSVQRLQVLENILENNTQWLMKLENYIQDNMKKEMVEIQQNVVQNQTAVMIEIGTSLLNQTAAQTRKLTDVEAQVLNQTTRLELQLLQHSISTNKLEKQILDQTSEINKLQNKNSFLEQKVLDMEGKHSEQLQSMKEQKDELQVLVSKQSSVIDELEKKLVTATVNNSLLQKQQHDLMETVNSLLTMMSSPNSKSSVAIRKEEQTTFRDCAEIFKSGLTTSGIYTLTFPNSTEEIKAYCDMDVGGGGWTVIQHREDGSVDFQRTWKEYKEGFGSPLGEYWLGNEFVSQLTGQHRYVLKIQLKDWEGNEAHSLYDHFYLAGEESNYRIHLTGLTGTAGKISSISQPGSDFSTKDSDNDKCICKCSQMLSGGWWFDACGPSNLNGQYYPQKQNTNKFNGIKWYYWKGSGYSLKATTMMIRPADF
Briefly: competition cell ECL; mAng-2 pre-incubated with binder, free Ang-2 captured on HEK:hTie-2 cells (competitor). How it is done: as §3, §4

Test [8] deals with T1, human angiopoietin-2. Briefly: SPR Biacore T200; lower end of the range, tied to SEQ ID NO: 11 by Table 3. The method, then:
as §1, §2

B1: mature hNGAL (SEQ ID NO: 16), negative control (other)
chain: QDSTSDLIPAPPLSKVPLQQNFQDNQFQGKWYVVGLAGNAILREDKDPQKMYATIYELKEDKSYNVTSVLFRKKKCDYWIRTFVPGCQPGEFTLGNIKSYPGLTSYLVRVVSTNYNQHAMVFFKKVSQNREYFKITLYGRTKELTSELKENFIRFSKSLGLPENHIVFPVPIDQCIDG
notes: Used as negative control; Biotinylated for the SPR assay; also called human lipocalin 2; human NGAL
For the molecule B1, in the test with human angiopoietin-2 [1], the binding result is listed as “no binding (tested: human Ang-2 at 1-27 nM)”.

B2: hNGAL lipocalin mutein SEQ ID NO: 7 (designed binder)
chain: QDSTSDLIPAPPLSKVPLQQNFQDNQFHGKWYVVGHAGNYILREDKDPEKMWATIYELKEDKSYDVTEVSFGPKKCNYRIWTFVPGSQPGEFTLGGIKSPPGDTSTLVRVVSTNYNQHAMVFFKHVLQNREFFEITLYGRTKELTSELKENFIRFSKSLGLPENHIVFPVPIDQCIDGSAWSHPQFEK
notes: Mutein of mature hNGAL; Biotinylated with NHS-PEG4-Biotin for the SPR assay
With B2, the “IC50 mean, LEC proliferation assay (CellTiter-Glo)” value (“IC50 mean, LEC proliferation assay” for short) with human angiopoietin-2 [2] was 0.199 nM. In addition, the binding result with human angiopoietin-1 was “binds”. The molecule further yielded an EC50 with human angiopoietin-2 [3] of 2.1 nM. Besides, the Kd is 0.2 to 1.4 nM in the test with human angiopoietin-2 [4] and 1.43 nM with human angiopoietin-2 [5]. Moreover, the koff in the test with human angiopoietin-2 [5] turned out to be 0.00026 s⁻¹. In addition, the IC50 with human angiopoietin-2 [6] was 0.0619 nM; with human angiopoietin-2 [7], 3.6 nM; in the test with mouse angiopoietin-2, 1.23 nM.

B3: hNGAL lipocalin mutein SEQ ID NO: 11 (designed binder)
chain: QDSTSDLIPAPPLSKVPLQQNFQDNQFHGKWYVVGQAGNYILREDKDPVKMWATIYELKEDKSYDVTEVSFGPKKCNYRIWTFVPGSQPGEFTLGGIKSLPGGTSTLVRVVSTNYNQHAMVFFKHVLQNREFFEITLYGRTKELTSELKENFIRFSKSLGLPENHIVFPVPIDQCIDGSAWSHPQFEK
notes: as for B2
Consider B3, for which the “IC50 mean, LEC proliferation assay” value with human angiopoietin-2 [2] worked out at 0.169 nM. In addition, the response in the test with human angiopoietin-2 [3] was half-maximal at 2.3 nM (EC50). Also, the Kd was 0.2 to 1.4 nM with human angiopoietin-2 [8] and 0.21 nM with human angiopoietin-2 [5]. In the test with human angiopoietin-2 [5], the koff turned out to be 0.00087 s⁻¹. The results for the IC50 with human angiopoietin-2 [6], with human angiopoietin-2 [7] and in the test with mouse angiopoietin-2 were 0.0988 nM, 4.79 nM and 1.45 nM, respectively.

B4: hNGAL lipocalin mutein SEQ ID NO: 8 (designed binder)
chain: QDSTSDLIPAPPLSKVPLQQNFQDNQFHGKWYVVGQAGNYILREDKDPGKMWATIYELKEDKSYDVTEVSFGAKKCNYRIWTFVPGSQPGEFTLGGIKSDPGGTSTLVRVVSTNYNQHAMVFFKHVLQNREFFEITLYGRTKELTSELKENFIRFSKSLGLPENHIVFPVPIDQCIDGSAWSHPQFEK
notes: as for B2
In the case of B4, the “IC50 mean, LEC proliferation assay” value with human angiopoietin-2 [2] turned out to be 0.078 nM. Moreover, the binding result with human angiopoietin-1 was “binds”. For the same molecule, a half-maximal response with human angiopoietin-2 [3] (EC50) required 2.4 nM. Binding with human angiopoietin-2 [5] was put at a Kd of 0.37 nM. This molecule showed a koff with human angiopoietin-2 [5] of 0.00013 s⁻¹. Moreover, the IC50 was 0.0708 nM in the test with human angiopoietin-2 [6], 3.75 nM with human angiopoietin-2 [7] and 1.25 nM with mouse angiopoietin-2.

The term EC50 denotes the midpoint of the concentration-response curve. Low readings indicate a more potent agent, high ones a less potent agent. As usually defined, the Kd is the equilibrium constant for the complex coming apart. A lower Kd goes with a tighter complex. As usually defined, the koff is the rate constant with which the complex falls apart. For orientation: IC50 means the concentration needed to halve the response being measured.
